Results published in patent US7732178B2, “Laccase enzymes and their uses” (AB Enzymes Oy, priority 2004, dated 2010).
Entries after “also recorded” stand apart in the source; their conditions may differ. Each block holds one molecule with its values, some of them ahead of it.

Columns and labels:
Decolorization of dyes [1] = test: Decolorization of dyes; set-up: key to Decolorization of Cibacron Brilliant Red 3B-P, Time 30 min / Decolorization of Cibacron Brilliant Red 3B-P, Time 60 min: −: no visually detectable change; +: visually detectable fading of the colour; ++: considerable fading of the colour; +++: complete/almost complete decolorization; settings: for Decolorization of Cibacron Brilliant Red 3B-P, Time 30 min / Decolorization of Cibacron Brilliant Red 3B-P, Time 60 min: dye 5 mg/50 ml, enzyme 100 nkat/50 ml, 50° C., pH 6; for decolorization of Cibacron Brilliant Red 3B-P: in the presence of the mediator
Method: (§1) The recombinant laccases CtLcc1, TaLcc2 and TaLcc4, derived from Trichoderma strains (Example 7) were tested for their ability to decolorize different dyes in the presence of the methyl syringate mediator (Example 7) or without it. The experiments were carried out in 100 ml shake flasks containing 50 ml of dye dissolved in citrate phosphate buffer pH 6. Dye concentration 5 mg/50 ml was used. Enzyme was dosed 100 nkat per 50 ml and the mediator 5 mg per 50 ml. Control samples contained only dye solution. The shake flasks were incubated at 50° C. for 30, 60 and 120 minutes. Samples of 3.5 ml were taken in test tubes for visual evaluation.

Decolorization of dyes [2] = test: Decolorization of dyes; set-up: key to Decolorization of Indigocarmine, Time 30 min / Decolorization of Indigocarmine, Time 60 min: −: no visually detectable change; +: visually detectable fading of the colour; ++: considerable fading of the colour; +++: complete/almost complete decolorization; settings: for Decolorization of Indigocarmine, Time 30 min / Decolorization of Indigocarmine, Time 60 min: dye 5 mg/50 ml, enzyme 100 nkat/50 ml, 50° C., pH 6; for decolorization of Indigocarmine: in the presence of the mediator
Method: as §1

[3] = Specific activity towards syringaldazine; assay type: biochemical; settings: 25 mM MES buffer, pH 5.5
Method: (§2) Specific activities of the purified T. arenaria and C. thermophilum laccases were determined towards different laccase substrates.

[4] = Denim bleaching at different pH values; set-up: key to After laccase treatment L* / After laccase treatment b* / Increase of L*: CIE L*a*b* colour coordinates (illuminant D65), Minolta reflectance; settings: for After laccase treatment L* / After laccase treatment b* / Increase of L*: face side of denim, 30 min, 50° C.; for decolorization of indigo dye of denim compared to DeniLite II Base: pH values 6 and 7, with mediator
Method: (§3) Lee Cooper jeans (MASI Company Oy, Finland) that were desized and treated with neutral ECOSTONE® cellulase were used as test material. Laccase treatments were performed in LP-2 Launder Ometer as follows. About 10 g of denim swatches (15×14 cm) were loaded into 1.2 liter containers containing 200 ml Mc Ilvaine's citrate phosphate buffer pH 5, 6 or 7 and the containers were temperated. Enzyme with or without the mediator (methyl syringate, DeniLite II Assist, Novozymes) was added as laccase activity units. Enzyme was dosed 200 nkat/g and the mediator 10 mg/g on the weight of fabric. […] The Launder Ometer was run at 50° C. for 30 min and after that the temperature in Launder was raised to 80° C. for 10 min. The swatches were carefully rinsed with warm water, dried half-dry in a tumbler and after that air dried.
(§4) The bleaching effect was evaluated by measuring the colour as reflectance values with the Minolta Chromameter CM 1000 (Minolta Co.) using L*a*b* color space coordinates (illuminant D65). The colour from both sides of the swatches was measured before and after the laccase treatment. Each measurement was the average of several measurements.

[5] = Specific activity towards guaiacol; assay type: biochemical; settings: 25 mM MES buffer, pH 5.5
Method: as §2

[6] = Denim bleaching at different temperatures; set-up: key to After laccase treatment L* / After laccase treatment b* / Increase of L*: CIE L*a*b* colour coordinates (illuminant D65), reflectance; settings: for decolorization of denim (increase of lightness) compared to Denilite II Base: 40-50 ° C. and pH 6; for After laccase treatment L* / After laccase treatment b* / Increase of L*: face side of denim, 30 min, pH 6, enzyme 200 nkat/g, mediator 10 mg/g
Method: as §3, §4
The test system and denim were as in Example 7, except that the conditions during the laccase and mediator treatment in Launder were 30 min, pH 6 and temperature 30-70° C. (DeniLite II Base also at 80° C.) and the enzyme was inactivated by alkaline treatment instead of raising the temperature in Launder as follows. After removing swatches from the containers they were soaked in warm water containing NaOH (pH 11.5) for 10 min and rinsed carefully with warm water. The swatches were dried half-dry in a tumbler and after that air dried. The bleaching effect was evaluated by measuring the colour as reflectance values as in Example 7.

[7] = pH 5, enzyme 200 nkat/g without the mediator, or mediator 10 mg/g alone
[8] = pH 5, enzyme 200 nkat/g, mediator 10 mg/g
[9] = pH 6, enzyme 200 nkat/g without the mediator, or mediator 10 mg/g alone
[10] = pH 6, enzyme 200 nkat/g, mediator 10 mg/g
[11] = pH 7, enzyme 200 nkat/g without the mediator, or mediator 10 mg/g alone
[12] = pH 7, enzyme 200 nkat/g, mediator 10 mg/g

- After laccase treatment L* [4, 7]: 28.88
- After laccase treatment b* [4, 7]: −18.65
- After laccase treatment L* [4, 8]: 35.07
- After laccase treatment b* [4, 8]: −18.38
- After laccase treatment L* [4, 9]: 28.83
- After laccase treatment b* [4, 9]: −18.53
- After laccase treatment L* [4, 10]: 40.08
- After laccase treatment b* [4, 10]: −17.18
- After laccase treatment L* [4, 11]: 29.32
- After laccase treatment b* [4, 11]: −18.52
- After laccase treatment L* [4, 12]: 36.69
- After laccase treatment b* [4, 12]: −17.88
- After laccase treatment L* ([6]; 30° C.): 31.78
- After laccase treatment b* ([6]; 30° C.): −19.15
- After laccase treatment L* ([6]; 40° C.): 34.43
- After laccase treatment b* ([6]; 40° C.): −18.77
- After laccase treatment L* ([6]; 50° C., alkaline inactivation): 36.78
- After laccase treatment b* ([6]; 50° C., alkaline inactivation): −18.96
- After laccase treatment L* ([6]; 60° C.): 37.40
- After laccase treatment b* ([6]; 60° C.): −18.29
- After laccase treatment L* ([6]; 70° C.): 34.16
- After laccase treatment b* ([6]; 70° C.): −17.91
B1: CtLcc1: Chaetomium thermophilum ALKO 4265 laccase, SEQ ID NO: 47, produced in Trichoderma reesei (protein)
chain: MKFLTYATALLGALTAVVGAIPTRSGTKKKYIRDGPGPCHTPSNRACWAPGFDINTDYEVNTPNTGVTRNYTLTLTEEDNWTGPDGVVKEKIMLVNGKTLGPTIEANWGDWIEVKVINNLLTNGTSIHWHGIHQKGSNLHDGANGVTECPIPPNGGQRTYRFRAQQYGTSWYHSHFSAQYGNGIVGPIVIHGPASLPYDIDLGPFPLTDYYYKSADELVRHTQNNGPPFSDNVLFNGTGVHPQTGHGQYAKVTLTPGKRHRLRIINMSTENHFQVSLVGHQFTVIAADMVPVHSYTTDSLFLAVGQRYDVTIDASQTPGNYWFNVTFGGGFACGGSFNPNPAAIFHYEGAPDALPTDPGVPPRDHNCLDTLDLVPVVPRNVQVNQFVKKPENTLPVELSLGGTPLFVWKVNGSAIDVDWGNPVLQYVMDRNTSYRQADNIVEVNGVNQWTYWLIENDPNGAFSLPHPMHLHGHDFLIVGRSPDVPPGSNQRYNFDPATDIYRLRGQNPTRRDVAMLPAGGWLLLAFLTDNPGAWLFHCHIAWHVSGGLSVDFLERPNDLRNSILQHDKDEFNRVCNEWRTYWPNSPHPKIDSGLKHRWVEESEWLVR
modifications: Chaetomium thermophilum ALKO4265; (1)..(607) Deduced amino acid sequence of Chaetomium thermophilum ALKO4265 CtLcc1
- Decolorization of Cibacron Brilliant Red 3B-P, Time 30 min (Decolorization of dyes [1]; mediator 0 mg/50 ml): −
- Decolorization of Cibacron Brilliant Red 3B-P, Time 60 min (Decolorization of dyes [1]; mediator 0 mg/50 ml): −
- Decolorization of Cibacron Brilliant Red 3B-P, Time 30 min (Decolorization of dyes [1]; mediator 5 mg/50 ml): +
- Decolorization of Cibacron Brilliant Red 3B-P, Time 60 min (Decolorization of dyes [1]; mediator 5 mg/50 ml): +
- decolorization of Cibacron Brilliant Red 3B-P (Decolorization of dyes [1]): partly decolorized
- Decolorization of Indigocarmine, Time 30 min (Decolorization of dyes [2]; mediator 0 mg/50 ml): −
- Decolorization of Indigocarmine, Time 60 min (Decolorization of dyes [2]; mediator 0 mg/50 ml): −
- Decolorization of Indigocarmine, Time 30 min (Decolorization of dyes [2]; mediator 5 mg/50 ml): +++
- Decolorization of Indigocarmine, Time 60 min (Decolorization of dyes [2]; mediator 5 mg/50 ml): +++
- decolorization of Indigocarmine (Decolorization of dyes [2]): very effectively; also recorded: to great extend or completely
- Specific activity on syringaldazin [3]: 400 nkat/mg
- Increase of L* [4, 7]: 0.46
- Increase of L* [4, 8]: 5.91
- Increase of L* [4, 9]: −0.13
- Increase of L* [4, 10]: 11.19
- Increase of L* [4, 11]: 0.73
- Increase of L* [4, 12]: 8.31
- decolorization of indigo dye of denim compared to DeniLite II Base [4]: more efficient
- Specific activity on guaiacol [5]: 85 nkat/mg
- decolorization of denim (increase of lightness) compared to Denilite II Base [6]: more efficient
- Increase of L* ([6]; 30° C.): 2.44
- Increase of L* ([6]; 40° C.): 5.72
- Increase of L* ([6]; 50° C., alkaline inactivation): 8.26
- Increase of L* ([6]; 60° C.): 8.52
- Increase of L* ([6]; 70° C.): 5.23

- After laccase treatment L* [4, 7]: 30.11
- After laccase treatment b* [4, 7]: −18.63
- After laccase treatment L* [4, 8]: 33.68
- After laccase treatment b* [4, 8]: −17.91
- After laccase treatment L* [4, 9]: 29.17
- After laccase treatment b* [4, 9]: −18.51
- After laccase treatment L* [4, 10]: 39.01
- After laccase treatment b* [4, 10]: −17.46
- After laccase treatment L* [4, 11]: 28.24
- After laccase treatment b* [4, 11]: −18.30
- After laccase treatment L* [4, 12]: 35.85
- After laccase treatment b* [4, 12]: −18.27
- After laccase treatment L* ([6]; 30° C.): 33.99
- After laccase treatment b* ([6]; 30° C.): −19.33
- After laccase treatment L* ([6]; 40° C.): 37.08
- After laccase treatment b* ([6]; 40° C.): −18.53
- After laccase treatment L* ([6]; 50° C., alkaline inactivation): 37.47
- After laccase treatment b* ([6]; 50° C., alkaline inactivation): −18.48
- After laccase treatment L* ([6]; 60° C.): 36.07
- After laccase treatment b* ([6]; 60° C.): −18.26
- After laccase treatment L* ([6]; 70° C.): 32.84
- After laccase treatment b* ([6]; 70° C.): −17.94
B2: TaLcc2: Thielavia arenaria ALKO 4197 laccase, SEQ ID NO: 41, produced in Trichoderma reesei (protein)
chain: MLTETLKSRNMLQSILALLATALGSSAFAIPELPEVSLQPRQACENTATSRQCWGDLSIDTNYYEVLPSTGRPPQEYWLSVVEGPCAPDGYNRTCMTFNGTVPGPTLFADWGDELVIHVTNNMVNNGTAIHWHGIRMLNNTLNDGVPGVTQCAIAPGESMTYRFNVTQYGSTWYHSHFSLQYAEGLFGGMILRGPSTANWDEDLGVLFLQDWSHVEAFTRWHEAKAGFPPSLDGGLINGTNTFDCSTLSPTDPKCTGNGKKFETVFEPGKKYLIRLINVAIDGVFQFSIDGHSLTVIATDLVPIVPYTTDSVQITIGQRYDIIVEANATPGNYWMRADWVTACVTNDHPEHMTGIVRYDASSIDPPTSESNVTKTSSCLGEPNEKTIPHLSLDVTNIGGTNVEELSFDTTSGDYFQWTLNTSSLVLDWGNPTMARIFNGDAIFPTEYNVVAVNKTGTGPEWTVLVIQDQSNLPIAHPIHLHGHDFWVLAAEEGVFNGNISSFNTRNPARRDVATLPGRGYLAIAFQIDNPGTWLTHCHIAWHASQGLSLEFVESQSEIVTDEVSRGVFNDVCASWRAHDPLWEQEDSGI
modifications: Thielavia arenaria ALKO4197; (1)..(589) Deduced amino acid sequence of Thielavia arenaria ALKO4197 TaLacc2
- Decolorization of Cibacron Brilliant Red 3B-P, Time 30 min (Decolorization of dyes [1]; Table 24, mediator 0 mg/50 ml): −
- Decolorization of Cibacron Brilliant Red 3B-P, Time 60 min (Decolorization of dyes [1]; Table 24, mediator 0 mg/50 ml): −
- Decolorization of Cibacron Brilliant Red 3B-P, Time 30 min (Decolorization of dyes [1]; Table 24, mediator 5 mg/50 ml): +
- Decolorization of Cibacron Brilliant Red 3B-P, Time 60 min (Decolorization of dyes [1]; Table 24, mediator 5 mg/50 ml): +
- decolorization of Cibacron Brilliant Red 3B-P (Decolorization of dyes [1]): partly decolorized
- Decolorization of Indigocarmine, Time 30 min (Decolorization of dyes [2]; Table 24, mediator 0 mg/50 ml): −
- Decolorization of Indigocarmine, Time 60 min (Decolorization of dyes [2]; Table 24, mediator 0 mg/50 ml): −
- Decolorization of Indigocarmine, Time 30 min (Decolorization of dyes [2]; Table 24, mediator 5 mg/50 ml): +++
- Decolorization of Indigocarmine, Time 60 min (Decolorization of dyes [2]; Table 24, mediator 5 mg/50 ml): +++
- decolorization of Indigocarmine (Decolorization of dyes [2]): very effectively; also recorded: to great extend or completely
- Specific activity on syringaldazin [3]: 120 nkat/mg
- Increase of L* [4, 7]: −0.02
- Increase of L* [4, 8]: 5.39
- Increase of L* [4, 9]: 0.30
- Increase of L* [4, 10]: 10.57
- Increase of L* [4, 11]: 0.77
- Increase of L* [4, 12]: 7.26
- decolorization of indigo dye of denim compared to DeniLite II Base [4]: more efficient
- Specific activity on guaiacol [5]: 40 nkat/mg
- decolorization of denim (increase of lightness) compared to Denilite II Base [6]: more efficient
- Increase of L* ([6]; 30° C.): 4.45
- Increase of L* ([6]; 40° C.): 8.15
- Increase of L* ([6]; 50° C., alkaline inactivation): 9.00
- Increase of L* ([6]; 60° C.): 6.82
- Increase of L* ([6]; 70° C.): 4.54
